Experimental data from PMC4660579.

Target: Drosophila melanogaster glutathione transferase epsilon 6 (Drosophila melanogaster)
Assay: crystal structure; DmGSTE6 at 15-20 mg/ml with 10 mM GSH, 20% PEG3350, 0.2 M sodium thiocyanate, sitting drop vapour diffusion at 288 K; 1.72 Å; homodimer

stoichiometry N: 2
Substance: Drosophila melanogaster glutathione transferase epsilon 6 (enzyme)
